Earlier results in article PMC10466379.

Columns and labels:
Test in all cases: not stated (values taken from the PKAD database; the article says PKAD values come mainly from NMR or IR titrations)
Conditions in all cases: not stated (the curated set excludes proteins with ligands, nucleic acids and structural metal ions)
[1] = target: Glu39 (UniProt position 121, FRLLLEDTPET)
[2] = target: Glu99 (UniProt position 181, ADGKMENEALV)
[3] = target: Lys39 (UniProt position 39, EFPGGKIEMGE)
[4] = target: Glu96 (UniProt position 123, DHYLLEFPTFP)
[5] = target: His104 (UniProt position 131, TFPDGHDYKFD)
[6] = target: His150 (UniProt position 177, LKLCSH-----)
[7] = target: His35 (UniProt position 62, AESNSHHAPLS)
[8] = target: His82 (UniProt position 109, DRPPKHSKDGN)
[9] = target: His92 (UniProt position 119, NGKTDHYLLEF)
[10] = target: Glu74 (UniProt position 156, AKKIEEEFDKG)
[11] = target: His121 (UniProt position 203, KPNNTHEQHLR)
[12] = target: His124 (UniProt position 206, NTHEQHLRKSE)
[13] = target: His46 (UniProt position 128, TPETKHPKKGV)
[14] = target: His8 (UniProt position 90, STKKLHKEPAT)
[15] = target: Glu36 (UniProt position 118, PMTFRELLVDT)
[16] = target: His8 (UniProt position 90, STKKLHAEPAT)
[17] = target: His72 (UniProt position 73, GINTAHKARQV)
[18] = target: Glu66 (UniProt position 148, FTKKMEENAKK)
[19] = target: Glu103 (UniProt position 185, MVNEAEVRQGL)
[20] = target: His36 (UniProt position 63, ESNSHHAPLSD)
[21] = target: Glu92 (UniProt position 174, RGLAYEYADGK)
[22] = target: His124 (UniProt position 206, NTHEQHLRASE)
[23] = target: His124 (UniProt position 206, NTHEQHLRKAE)
[24] = target: His137 (UniProt position 164, CGIIAHTKENQ)
[25] = target: His50 (UniProt position 77, GSSYPHWFTNG)
[26] = target: His92 (UniProt position 119, NGKTDHYLLQF)
[27] = target: His60 (UniProt position 60, NETQTHQQVGN)

Substance	pKa [11]	pKa [12]	pKa [13]	pKa [14]	also measured
staphylococcal nuclease variant V39E (parent PDB 2LKV) (Staphylococcus aureus (inferred from PDB 2LKV; not stated in the article); V39E)					pKa [1]: 8.2
staphylococcal nuclease variant V99E (parent PDB 2LKV) (Staphylococcus aureus (inferred from PDB 2LKV; not stated in the article); V99E)					pKa [2]: 8.4
MutT protein (Escherichia coli (inferred from PDB 1MUT; not stated in the article))					pKa [3]: 8.4
alpha-sarcin H137Q (parent PDB 1DE3) (Aspergillus giganteus (inferred from PDB 1DE3; not stated in the article); H137Q)					pKa [4]: 5.7; pKa [5]: 6.6; pKa [6]: 7.7; pKa [7]: 6.3; pKa [8]: 7.4; pKa [9]: 7.1
staphylococcal nuclease variant V74E (parent PDB 2LKV) (Staphylococcus aureus (inferred from PDB 2LKV; not stated in the article); V74E)					pKa [10]: 7.8
staphylococcal nuclease E73A (parent PDB 1STN) (Staphylococcus aureus (inferred from PDB 1STN; not stated in the article); E73A)	5.24	5.63	6.51	6.47	
staphylococcal nuclease variant L36E (parent PDB 2LKV) (Staphylococcus aureus (inferred from PDB 2LKV; not stated in the article); L36E)					pKa [15]: 8.7
staphylococcal nuclease K9A (parent PDB 1STN) (Staphylococcus aureus (inferred from PDB 1STN; not stated in the article); K9A)	5.48	5.67	6.47		pKa [16]: 6.73
staphylococcal nuclease Y91F (parent PDB 1STN) (Staphylococcus aureus (inferred from PDB 1STN; not stated in the article); Y91F)	6.04	5.65	6.39	6.36	
bovine heart phosphotyrosyl phosphatase (low molecular weight PTPase) (Bos taurus)					pKa [17]: 9.19
staphylococcal nuclease variant V66E (parent PDB 2LKV) (Staphylococcus aureus (inferred from PDB 2LKV; not stated in the article); V66E)					pKa [18]: 8.5
staphylococcal nuclease variant L103E (parent PDB 2LKV) (Staphylococcus aureus (inferred from PDB 2LKV; not stated in the article); L103E)					pKa [19]: 8.9
alpha-sarcin H50Q/H137Q (parent PDB 1DE3) (Aspergillus giganteus (inferred from PDB 1DE3; not stated in the article); H50Q;H137Q)					pKa [4]: 5.4; pKa [5]: 7.3; pKa [6]: 7.6; pKa [7]: 6.3; pKa [20]: 7.3; pKa [8]: 7; pKa [9]: 7.4
staphylococcal nuclease E101A (parent PDB 1STN) (Staphylococcus aureus (inferred from PDB 1STN; not stated in the article); E101A)	5.26	5.04	6.4	6.49	
staphylococcal nuclease D77N (parent PDB 1STN) (Staphylococcus aureus (inferred from PDB 1STN; not stated in the article); D77N)	5.77	5.81	6.53	6.29	
staphylococcal nuclease variant I92E (parent PDB 2LKV) (Staphylococcus aureus (inferred from PDB 2LKV; not stated in the article); I92E)					pKa [21]: 9
staphylococcal nuclease Y93F (parent PDB 1STN) (Staphylococcus aureus (inferred from PDB 1STN; not stated in the article); Y93F)		5.52	6.42	6.46	
staphylococcal nuclease K127A (parent PDB 1STN) (Staphylococcus aureus (inferred from PDB 1STN; not stated in the article); K127A)	5.3		6.45	6.51	pKa [22]: 5.99
staphylococcal nuclease Y91A (parent PDB 1STN) (Staphylococcus aureus (inferred from PDB 1STN; not stated in the article); Y91A)	5.32	5.82	6.52	6.42	
staphylococcal nuclease D77A (parent PDB 1STN) (Staphylococcus aureus (inferred from PDB 1STN; not stated in the article); D77A)	5.89	5.77	6.43	6.44	
staphylococcal nuclease Y93A (parent PDB 1STN) (Staphylococcus aureus (inferred from PDB 1STN; not stated in the article); Y93A)	5.94	5.68	6.48	6.45	
staphylococcal nuclease S128A (parent PDB 1STN) (Staphylococcus aureus (inferred from PDB 1STN; not stated in the article); S128A)	5.25		6.49	6.53	pKa [23]: 5.71
alpha-sarcin E96Q (parent PDB 1DE3) (Aspergillus giganteus (inferred from PDB 1DE3; not stated in the article); E96Q)					pKa [24]: 5.9; pKa [6]: 7.9; pKa [7]: 6.3; pKa [20]: 7.3; pKa [25]: 6.4; pKa [26]: 7.2
family 11 xylanase (PDB 1H4G) (Bacillus agaradhaerens (inferred from PDB 1H4G; not stated in the article))					pKa [27]: 4.01
alpha-sarcin H50Q (parent PDB 1DE3) (Aspergillus giganteus (inferred from PDB 1DE3; not stated in the article); H50Q)					pKa [4]: 5; pKa [24]: 6.1; pKa [6]: 7.3; pKa [7]: 6.2; pKa [8]: 7.4; pKa [9]: 7.3
